Series [1] has as its target phage T4 gp16 oligomerization domain alone (N- and C-terminal domains deleted) (bacteriophage T4). Nature of the series: SEC.
The series “SEC” concerns the molecule itself. Nature of the series: SEC.

Where “and” joins values, the source holds several entries; their conditions need not be identical. Equal values may be shown once.

In the case of “phage T4 gp16 oligomerization domain alone (N- and C-terminal domains deleted) (domain or fragment)”, in series [1], the stoichiometry N was 11 and 12.

B1: phage T4 small terminase (TerS) gp16, wild type (natural protein, bacteriophage T4, UniProt P17311 1-164, looked up)
chain: MEGLDINKLLDISDLPGIDGEEIKVYEPLQLVEVKSNPQNRTPDLEDDYGVVRRNMHFQQQMLMDAAKIFLETAKNADSPRHMEVFATLMGQMTTTNREILKLHKDMKDITSEQVGTKGAVPTGQMNIQNATVFMGSPTELMDEIGDAYEAQEAREKVINGTTD
As for B1, the binding result in “SEC” is “binds”.

B2: phage T4 gp16 mutant 3M (R98A, K102A, K108A) (natural protein, bacteriophage T4, UniProt P17311 1-164, looked up)
chain: MEGLDINKLLDISDLPGIDGEEIKVYEPLQLVEVKSNPQNRTPDLEDDYGVVRRNMHFQQQMLMDAAKIFLETAKNADSPRHMEVFATLMGQMTTTNAEILALHKDMADITSEQVGTKGAVPTGQMNIQNATVFMGSPTELMDEIGDAYEAQEAREKVINGTTD
For B2, the binding result in the series “SEC” is listed as “binds”.

B3: phage T4 gp16 mutant 4M (R98A, K102A, K105A, K108A) (natural protein, bacteriophage T4, UniProt P17311 1-164, looked up)
chain: MEGLDINKLLDISDLPGIDGEEIKVYEPLQLVEVKSNPQNRTPDLEDDYGVVRRNMHFQQQMLMDAAKIFLETAKNADSPRHMEVFATLMGQMTTTNAEILALHADMADITSEQVGTKGAVPTGQMNIQNATVFMGSPTELMDEIGDAYEAQEAREKVINGTTD
As for B3, the “stoichiometry N” value in the series “SEC” was about 6.

B4: phage T4 gp16 N-C fusion (amino acids 36-118 deleted; lacks helix alpha1 and helix alpha2) (natural protein, bacteriophage T4, UniProt P17311 1-164, looked up)
chain: MEGLDINKLLDISDLPGIDGEEIKVYEPLQLVEVKGAVPTGQMNIQNATVFMGSPTELMDEIGDAYEAQEAREKVINGTTD
As for B4, the “stoichiometry N” value in the series “SEC” came out at 2.

Values taken from paper PMC4872099 (Nucleic Acids Research, 2016).
